In general, koff refers to the first-order rate constant of dissociation.

The target of assay [1] is muscle actin (UniProt P68135). Description: seeded actin assembly kinetics.
The target in assay [2] is muscle actin (UniProt P68135). Put plainly: apparent critical concentration for actin polymerization at steady state.

As to “Cap1 C-30, synthetic peptide corresponding to the Cap1 COOH-terminal 30 residues, 239–268 (from UniProt P28495 239-268)”, in assay [1], the Kd of capping (barbed end; fit with capping and monomer binding) was found to be 1710 nM; the Kd of monomer binding (fit with capping and monomer binding) worked out at 2860 nM; the k+2 of capping (barbed end; fit with capping and monomer binding) turned out to be 2100 M⁻¹ s⁻¹.
On to “Cap1Δ(239–268)/Cap2 (from UniProt P28495 1-238; P13517 1-287) (complex)”, for which the Kd in assay [2] is greater than 50000 nM. Further, in assay [1], the Kd worked out at 10300 nM and the off-rate constant (koff) came out at 0.00233 s⁻¹.

Values taken from publication PMC2171992.
